{"source": "patent US20170233490A1", "about": "(Hoffmann-La Roche, published 2017)", "binders": {"B1": {"name": "anti-HER3/HER4 antibody M-05-74 (antibody, V domains shown)", "VH": "QVQLQQSGAELAKPGASVKMSCKTSGYTLTDYWIHWVKQRPGQGLEWIGYINPYTGYTESNQKFKDKATLTADKSSNTAYIQLSSLTSEDSAVYYCARPYYYGDYWGQGTTLTVSS", "VL": "QIVLTQSPAIMSASPGERVTITCSASSSVSYMHWFQQKPGTSPKLLIYSTSNLASGVPARFSGSGSGTSYSLTISRMEAEDAATYYCQQRSSYPFTFGSGTKLEIK", "notes": "murine monoclonal IgG from hybridoma (supernatant or purified), bivalent; also called M-074; M-5-74"}}, "key": {"TtSlyD-FKBP-Her3 [1]": {"molecular_target": "T1, TtSlyD-FKBP-Her3", "T1 construct": "N-terminal Met present or not; also called thermo SlyD-Her3; ttSlyD-Her3", "T1 chain": "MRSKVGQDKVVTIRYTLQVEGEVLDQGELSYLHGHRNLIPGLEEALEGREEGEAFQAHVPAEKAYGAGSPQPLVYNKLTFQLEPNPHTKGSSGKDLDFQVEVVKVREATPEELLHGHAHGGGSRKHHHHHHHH", "assay": "SPR Biacore 3000, antibody captured, 25 C"}, "HER3 ECD-HRG complex": {"molecular_target": "T2, HER3 ECD-HRG complex (human, UniProt P21860 20-643)", "T2 construct": "HER3 ECD preincubated with a 3- to 6-fold molar excess of Heregulin ('open' conformation); biotinylated Her3-ECD in the ribosome display; also called HER3-ECD/HRG1β", "assay": "SPR Biacore 3000, 37 C"}, "[2]": {"molecular_target": "T3, human HER3 Extracellular Domain (ECD) (human, UniProt P21860 20-643)", "T3 construct": "human recombinant, 68 kDa; 'closed' conformation without ligand; also called Her3 ECD; Her-3 ECD", "assay": "SPR Biacore 3000, 37 C"}, "HER4 ECD-HRG complex": {"molecular_target": "T4, HER4 ECD-HRG complex (human, UniProt Q15303 26-651)", "T4 construct": "HER4 ECD preincubated with a 5-fold molar excess of Heregulin", "T4 sequence 1": "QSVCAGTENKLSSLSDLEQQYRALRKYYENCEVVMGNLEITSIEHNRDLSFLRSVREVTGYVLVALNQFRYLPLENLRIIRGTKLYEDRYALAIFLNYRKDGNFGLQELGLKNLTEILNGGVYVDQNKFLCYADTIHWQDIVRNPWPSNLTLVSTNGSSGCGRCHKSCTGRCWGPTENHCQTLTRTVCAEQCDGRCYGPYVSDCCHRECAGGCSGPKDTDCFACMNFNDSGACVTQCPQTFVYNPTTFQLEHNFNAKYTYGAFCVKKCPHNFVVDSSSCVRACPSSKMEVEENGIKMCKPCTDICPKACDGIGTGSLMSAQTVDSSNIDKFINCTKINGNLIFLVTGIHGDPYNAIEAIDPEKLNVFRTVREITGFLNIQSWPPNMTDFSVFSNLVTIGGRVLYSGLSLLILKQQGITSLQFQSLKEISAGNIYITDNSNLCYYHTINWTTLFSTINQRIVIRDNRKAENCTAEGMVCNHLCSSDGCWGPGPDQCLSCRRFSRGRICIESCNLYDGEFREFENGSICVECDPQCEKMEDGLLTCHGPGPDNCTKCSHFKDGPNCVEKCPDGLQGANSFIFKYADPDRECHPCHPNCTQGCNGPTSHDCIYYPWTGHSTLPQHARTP", "T4 sequence 2": "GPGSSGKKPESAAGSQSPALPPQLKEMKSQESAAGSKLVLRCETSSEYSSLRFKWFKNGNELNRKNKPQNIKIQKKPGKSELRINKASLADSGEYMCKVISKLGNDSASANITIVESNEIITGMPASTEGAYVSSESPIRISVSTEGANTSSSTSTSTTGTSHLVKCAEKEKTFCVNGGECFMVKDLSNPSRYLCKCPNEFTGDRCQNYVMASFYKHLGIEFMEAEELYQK", "assay": "SPR Biacore 3000, 37 C"}, "[3]": {"molecular_target": "T3, human HER3 Extracellular Domain (ECD)", "assay": "SPR Biacore 4000, antibody captured, analyte 150 nM, 25 C", "protocol": "(§1) Prior to their application the hybridoma culture supernatants were diluted 1:5 in instrument buffer. The diluted mixtures were injected at a flow rate of 30 μl/min for 2 min. The antibody capture level (CL) in response units was monitored. Immediately thereafter the respective antigen was injected at a flow rate of 30 μl/min for 3 min association time. Thereafter, the antibody-antigen complex dissociation signal was recorded for 5 min. The sensor was regenerated by injecting a 10 mM glycine-HCl solution (pH 1.7) for 2 min at a flow rate of 30 μl/min. The recorded signal shortly before the end of the injection of the antigen was denoted as binding late (BL) in response units. The recorded signal shortly before the end of the recording of the dissociation is denoted as stability late (SL) in response units. The dissociation rate constants were determined calculated The antibody-antigen complex stability in minutes was calculated with the following formula: ln(2)/60*kd. The Molar Ratio was calculated with the formula: MW (antibody)/MW(antigen)*BL (antigen)/CL (antibody).\n(§2) Binding Late (BL) represents the response units at the end of the analyte injection. The amount of antibody captured as a ligand on the sensor surface is measured as Capture Level (CL) in response units. Together with the information of the molecular weights of the tested analytes, the antibody and the analyte in solution, the Molar Ratio can be calculated. […] Then, the Molar Ratio is also an indicator for the valence mode of analyte binding. The maximum valence can be MR=2 for an antibody binding two analytes, one with each Fab valence."}, "TtSlyD-FKBP-Her3 [4]": {"molecular_target": "T1, TtSlyD-FKBP-Her3", "assay": "SPR Biacore 4000, antibody captured, analyte 150 nM, 25 C", "protocol": "as §1, §2"}, "[5]": {"molecular_target": "T5, human HER1 (full length, on cells) (human, UniProt P00533 25-1210)", "T5 construct": "HEK293 cells transfected with full length HER1, fixed and embedded (IHC); also called EGFR", "assay": "IHC (Ventana Benchmark XT) on formalin-fixed, paraffin-embedded HEK293 cells transiently transfected with full length HER1", "protocol": "All selected clones were tested for reactivity and specificity in IHC. […] After an additional fixation in formalin overnight the Agarose blocks were embedded in paraffin. Untransfected HEK293 cells were used as negative controls and treated accordingly to the transfected cells. After paraffin embedding 3 μm thin sections were prepared using a microtome. The sections were mounted on glass microscopy slides and dried for 2 h. All further steps of the immunohistochemical staining procedure were carried out using a Ventana Benchmark XT. The slides were dewaxed and antigen retrieval was performed by applying heat for 1 hour. For antigen retrieval the Ventana buffer CC1 was used. The antibodies were used at a concentration of 1 μg/ml. For the detection of bound antibody the Ventana UltraView detection kit was used."}}}
{"binder": "B1", "values": [{"measurement": "Kd", "setting": "TtSlyD-FKBP-Her3 [1]", "value": 27, "unit": "nM"}, {"measurement": "Kd", "setting": "HER3 ECD-HRG complex", "value": 7, "unit": "nM"}, {"measurement": "MR", "setting": "HER3 ECD-HRG complex", "value": 0.7}, {"measurement": "koff", "setting": "HER3 ECD-HRG complex", "value": 0.00057, "unit": "s⁻¹"}, {"measurement": "kon", "setting": "HER3 ECD-HRG complex", "value": 79000, "unit": "M⁻¹ s⁻¹"}, {"measurement": "t/2diss", "setting": "HER3 ECD-HRG complex", "value": 20, "unit": "min"}, {"measurement": "Kd", "setting": "[2]", "value": 4, "unit": "nM"}, {"measurement": "MR", "setting": "[2]", "value": 0.6}, {"measurement": "koff", "setting": "[2]", "value": "8.1e-05", "unit": "s⁻¹"}, {"measurement": "kon", "setting": "[2]", "value": 21000, "unit": "M⁻¹ s⁻¹"}, {"measurement": "t/2diss", "setting": "[2]", "value": 144, "unit": "min"}, {"measurement": "Kd", "setting": "HER4 ECD-HRG complex", "value": 6, "unit": "nM"}, {"measurement": "MR", "setting": "HER4 ECD-HRG complex", "value": 0.9}, {"measurement": "koff", "setting": "HER4 ECD-HRG complex", "value": 0.0033, "unit": "s⁻¹"}, {"measurement": "kon", "setting": "HER4 ECD-HRG complex", "value": 580000, "unit": "M⁻¹ s⁻¹"}, {"measurement": "t/2diss", "setting": "HER4 ECD-HRG complex", "value": 4, "unit": "min"}, {"measurement": "MR (Molar Ratio)", "setting": "[3]", "value": 0.5}, {"measurement": "koff", "setting": "[3]", "value": "< 1e-05", "unit": "s⁻¹"}, {"measurement": "MR (Molar Ratio)", "setting": "TtSlyD-FKBP-Her3 [4]", "value": 1.1}, {"measurement": "koff", "setting": "TtSlyD-FKBP-Her3 [4]", "value": 0.00012, "unit": "s⁻¹"}, {"measurement": "binding result", "setting": "[5]", "value": "no binding (tested: 1 µg/ml)"}]}
